From patent publication US20240018502A1
Numbering of substitutions follows the chain as printed. In names and notes the source's numbering stands. Values belong to the binder of their own block, whether it stands above or below them.

Biological target: plasma purified human complement protein C3 (human) (UniProt P01024)
Assay: cell-based or functional assay

Chain of plasma purified human complement protein C3 (human) (P01024 23-667, chain 1 of 2): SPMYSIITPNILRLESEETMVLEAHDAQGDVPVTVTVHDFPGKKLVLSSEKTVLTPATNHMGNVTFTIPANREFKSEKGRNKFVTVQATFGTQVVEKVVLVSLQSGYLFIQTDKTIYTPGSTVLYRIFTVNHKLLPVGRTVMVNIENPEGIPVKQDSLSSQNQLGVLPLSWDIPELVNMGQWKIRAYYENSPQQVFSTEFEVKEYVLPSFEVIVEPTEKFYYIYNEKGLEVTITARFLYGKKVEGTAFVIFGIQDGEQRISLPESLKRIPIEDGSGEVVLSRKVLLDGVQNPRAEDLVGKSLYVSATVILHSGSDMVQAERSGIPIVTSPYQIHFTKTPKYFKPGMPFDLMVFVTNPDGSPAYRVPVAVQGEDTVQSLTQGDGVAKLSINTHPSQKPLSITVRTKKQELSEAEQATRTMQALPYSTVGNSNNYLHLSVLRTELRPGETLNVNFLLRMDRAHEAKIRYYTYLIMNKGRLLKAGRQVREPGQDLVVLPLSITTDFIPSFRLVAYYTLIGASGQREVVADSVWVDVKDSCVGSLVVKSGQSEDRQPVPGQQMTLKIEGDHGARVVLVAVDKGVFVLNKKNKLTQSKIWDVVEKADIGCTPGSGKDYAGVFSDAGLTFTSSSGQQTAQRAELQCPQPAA
Chain of plasma purified human complement protein C3 (human) (P01024 672-1663, chain 2 of 2): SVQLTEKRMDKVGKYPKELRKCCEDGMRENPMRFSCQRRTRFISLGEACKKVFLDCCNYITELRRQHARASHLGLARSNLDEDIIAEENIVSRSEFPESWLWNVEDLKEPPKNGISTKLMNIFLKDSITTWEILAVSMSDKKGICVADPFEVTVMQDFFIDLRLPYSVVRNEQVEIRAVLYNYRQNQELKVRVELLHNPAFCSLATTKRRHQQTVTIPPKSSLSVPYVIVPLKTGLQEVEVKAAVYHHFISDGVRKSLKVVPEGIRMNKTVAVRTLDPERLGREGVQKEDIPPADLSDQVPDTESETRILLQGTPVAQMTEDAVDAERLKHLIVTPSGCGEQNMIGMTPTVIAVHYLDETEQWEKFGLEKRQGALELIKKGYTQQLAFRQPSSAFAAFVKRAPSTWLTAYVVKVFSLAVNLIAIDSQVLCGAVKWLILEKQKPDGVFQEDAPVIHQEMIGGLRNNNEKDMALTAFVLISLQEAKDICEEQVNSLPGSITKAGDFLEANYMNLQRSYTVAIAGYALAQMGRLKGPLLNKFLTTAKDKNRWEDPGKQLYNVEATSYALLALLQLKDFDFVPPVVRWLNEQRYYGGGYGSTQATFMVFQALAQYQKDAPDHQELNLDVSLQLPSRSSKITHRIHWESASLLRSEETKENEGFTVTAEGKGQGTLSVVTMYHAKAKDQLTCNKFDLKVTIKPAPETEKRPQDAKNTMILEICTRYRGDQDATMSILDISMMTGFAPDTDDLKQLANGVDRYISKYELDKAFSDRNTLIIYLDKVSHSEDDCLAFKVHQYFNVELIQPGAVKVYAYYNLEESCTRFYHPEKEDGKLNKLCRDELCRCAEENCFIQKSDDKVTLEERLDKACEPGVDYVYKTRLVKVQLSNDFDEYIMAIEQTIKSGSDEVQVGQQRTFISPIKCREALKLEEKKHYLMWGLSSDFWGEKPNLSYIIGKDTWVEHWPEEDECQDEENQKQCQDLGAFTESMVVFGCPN

B1: MTSP-1 protease domain Q38E/I41S/D60bV/F60eK/Y60gW/D96M/F97N/T98G/F99L/C122S/G151N/Q175L/Q192D (enzyme)
chain: VVGGTDADEGEWPWQVSLHALGEGHSCGASLISPNWLVSAAHCYIDVRGKRWSDPTQWTAFLGLHDQSQRSAPGVQERRLKRIISHPFFNMNGLDYDIALLELEKPAEYSSMVRPISLPDASHVFPAGKAIWVTGWGHTQYGGTNALILQKGEIRVINQTTCENLLPQLITPRMMCVGFLSGGVDSCDGDSGGPLSSVEADGRIFQAGVVSWGDGCAQRNKPGVYTRLPLFRDWIKENTGV
EC50 hC3 cleavage: 19.1 nM

B3: MTSP-1 protease domain Q38Y/D60bT/F60eR/Y60gW/D96M/F97N/T98G/F99L/C122S/G151N/Q175L/Q192D (enzyme)
chain: B1 chain with E23Y, S26I, V47T, K50R
EC50 hC3 cleavage: 47.7 nM

B5: MTSP-1 protease domain I41S/F97E/F99L/C122S/G151N/Q175G/Q192R/D217A (enzyme)
chain: B1 chain with E23Q, V47D, K50F, W52Y, M91D, N92E, G93T, L169G, D188R, D214A
EC50 hC3 cleavage: 74.3 nM

B6: MTSP-1 protease domain Q38H/I41S/D60bT/F60eK/D96V/F97N/T98G/F99L/C122S/G151N/Q175L/Q192D (enzyme)
chain: B1 chain with E23H, V47T, W52Y, M91V
EC50 hC3 cleavage: 13.3 nM

B10: MTSP-1 protease domain Q38H/I41S/F60eT/Y60gW/D96M/F97N/T98G/F99L/C122S/G151N/Q175L/Q192D (enzyme)
chain: B1 chain with E23H, V47D, K50T
EC50 hC3 cleavage: 35.7 nM

B14: MTSP-1 protease domain I41S/D60bT/F60eR/Y60gW/D96M/F97N/T98G/F99L/C122S/G151N/Q175L/Q192D (enzyme)
chain: B1 chain with E23Q, V47T, K50R
EC50 hC3 cleavage: 9.47 nM

B17: MTSP-1 protease domain I41G/F97A/F99L/C122S/G151H/Q175L/Q192G/D217L (enzyme)
chain: VVGGTDADEGEWPWQVSLHALGQGHGCGASLISPNWLVSAAHCYIDDRGFRYSDPTQWTAFLGLHDQSQRSAPGVQERRLKRIISHPFFNDATLDYDIALLELEKPAEYSSMVRPISLPDASHVFPAGKAIWVTGWGHTQYGGTHALILQKGEIRVINQTTCENLLPQLITPRMMCVGFLSGGVDSCGGDSGGPLSSVEADGRIFQAGVVSWGLGCAQRNKPGVYTRLPLFRDWIKENTGV
EC50 hC3 cleavage: 47.8 nM

B18: MTSP-1 protease domain I41G/F97S/F99L/C122S/G151N/Q175I/Q192T/D217T (enzyme)
chain: B17 chain with A92S, H145N, L169I, G188T, L214T
EC50 hC3 cleavage: 84.4 nM

B19: MTSP-1 protease domain I41G/F97L/F99L/C122S/G151N/Q175A/Q192V/D217R (enzyme)
chain: B17 chain with A92L, H145N, L169A, G188V, L214R
EC50 hC3 cleavage: 34 nM

B20: MTSP-1 protease domain I41G/F97S/F99L/C122S/G151T/Q175R/Q192A/D217Y (enzyme)
chain: B17 chain with A92S, H145T, L169R, G188A, L214Y
EC50 hC3 cleavage: 52.8 nM

B21: MTSP-1 protease domain I41G/F97L/F99L/C122S/G151T/Q175M/Q192D/D217M (enzyme)
chain: B17 chain with A92L, H145T, L169M, G188D, L214M
EC50 hC3 cleavage: 36.8 nM

B22: MTSP-1 protease domain I41R/F97A/F99L/C122S/G151N/Q175R/Q192G/D217Q (enzyme)
chain: B17 chain with G26R, H145N, L169R, L214Q
EC50 hC3 cleavage: 401 nM

B23: MTSP-1 protease domain F97S/F99L/C122S/G151N/Q175I/Q192T/D217T (enzyme)
chain: B17 chain with G26I, A92S, H145N, L169I, G188T, L214T
EC50 hC3 cleavage: 524 nM

B24: MTSP-1 protease domain I41G/F97T/F99M/C122S/G151D/Q175T/Q192T/D217V (enzyme)
chain: B17 chain with A92T, L94M, H145D, L169T, G188T, L214V
EC50 hC3 cleavage: 45.6 nM

B25: MTSP-1 Q38H/I41S/D60bT/F60eS/Y60gW/D96K/ins97aV/F97G/T98P/F99L/C122S/G151H/Q175L/Q192D (enzyme)
chain: VVGGTDADEGEWPWQVSLHALGHGHSCGASLISPNWLVSAAHCYIDTRGSRWSDPTQWTAFLGLHDQSQRSAPGVQERRLKRIISHPFFNKGVPLDYDIALLELEKPAEYSSMVRPISLPDASHVFPAGKAIWVTGWGHTQYGGTHALILQKGEIRVINQTTCENLLPQLITPRMMCVGFLSGGVDSCDGDSGGPLSSVEADGRIFQAGVVSWGDGCAQRNKPGVYTRLPLFRDWIKENTGV
EC50 of hC3 cleavage: 6.86 nM

B26: MTSP-1 protease domain Q38H/I41S/D60bT/F60eS/Y60gW/D96K/F97G/ins97aA/T98P/F99L/C122S/G151H/Q175L/Q192D (enzyme)
chain: B25 chain with V93A
EC50 hC3 cleavage: 1.43 nM

B27: MTSP-1 Q38H/I41S/D60bT/F60eS/Y60gW/D96V/F97G/ins97aV/T98P/F99L/C122S/G151H/Q175L/Q192D (enzyme)
chain: B25 chain with K91V
EC50 of hC3 cleavage: 2.85 nM

B28: MTSP-1 protease domain Q38H/I41S/D60bT/F60eS/Y60gW/D96K/F97G/ins97aV/T98P/F99L/C122S/T150S/G151H/Q175L/Q192D/Q209L (enzyme)
chain: B25 chain with T145S, Q207L
EC50 hC3 cleavage: 2.88 nM

B29: MTSP-1 protease domain L36Q/Q38H/I41S/D60bT/F60eS/Y60gW/D96K/F97G/ins97aV/T98P/F99L/C122S/G151H/Q175L/Q192D (enzyme)
chain: B25 chain with L21Q
EC50 hC3 cleavage: 5.49 nM

B30: MTSP-1 protease domain Q38H/I41S/D60bT/F60eS/Y60gW/D96K/F97G/ins97aV/T98P/F99L/M117K/C122S/G151H/Q175L/Q192D (enzyme)
chain: B25 chain with M113K
EC50 hC3 cleavage: 4.75 nM

B31: MTSP-1 Q38H/I41S/D60bT/F60eS/Y60gW/D96K/F97D/ins97aA/T98P/F99L/C122S/G151N/Q175L/Q192D (enzyme)
chain: B25 chain with G92D, V93A, H146N
EC50 of hC3 cleavage: 5.92 nM

Now from value to binder:

EC50 hC3 cleavage: 15.9 nM
B2: MTSP-1 protease domain Q38Y/I41S/D60bT/F60eR/Y60gW/F97N/T98G/F99L/C122S/G151N/Q175L/Q192D (enzyme)
chain: B1 chain with E23Y, V47T, K50R, M91D

EC50 hC3 cleavage: 3.08 nM
B4: MTSP-1 protease domain Q38Y/I41S/D60bT/Y60gW/D96M/F97N/T98G/F99L/C122S/G151N/Q175L/Q192D (enzyme)
chain: B1 chain with E23Y, V47T, K50F

EC50 hC3 cleavage: 10.4 nM
B7: MTSP-1 protease domain Q38Y/I41S/F60eR/Y60gW/D96M/F97N/T98G/F99L/C122S/G151N/Q175L/Q192D (enzyme)
chain: B1 chain with E23Y, V47D, K50R

EC50 hC3 cleavage: 16.4 nM
B8: MTSP-1 protease domain Q38Y/I41S/D60bT/F60eR/D96M/F97N/T98G/F99L/C122S/G151N/Q175L/Q192D (enzyme)
chain: B1 chain with E23Y, V47T, K50R, W52Y

EC50 hC3 cleavage: 5.12 nM
B9: MTSP-1 protease domain Q38Y/I41S/D60bT/F60eR/Y60gW/D96M/F97N/T98G/F99L/C122S/G151N/Q175L/Q192D (enzyme)
chain: B1 chain with E23Y, V47T, K50R

EC50 hC3 cleavage: 33.6 nM
B11: MTSP-1 protease domain Q38Y/I41S/D60bT/F60eR/Y60gW/D96M/F97N/T98G/C122S/G151N/Q175L/Q192D (enzyme)
chain: B1 chain with E23Y, V47T, K50R, L94F

EC50 hC3 cleavage: 56.7 nM
B12: MTSP-1 protease domain Q38Y/I41S/D60bT/F60eR/Y60gW/D96M/F97N/T98G/F99L/C122S/G151N/Q192D (enzyme)
chain: B1 chain with E23Y, V47T, K50R, L169Q

EC50 hC3 cleavage: 3.27 nM
B13: MTSP-1 protease domain Q38Y/I41S/D60bT/F60eR/Y60gW/D96M/T98G/F99L/C122S/G151N/Q175L/Q192D (enzyme)
chain: B1 chain with E23Y, V47T, K50R, N92F

EC50 hC3 cleavage: 1.08 nM
B15: MTSP-1 protease domain Q38Y/I41S/D60bT/F60eR/Y60gW/D96M/F97N/T98G/F99L/C122S/G151N/Q175L (enzyme)
chain: B1 chain with E23Y, V47T, K50R, D188Q

EC50 hC3 cleavage: 10.8 nM
B16: MTSP-1 protease domain Q38Y/I41S/D60bT/F60eR/Y60gW/D96M/F97N/F99L/C122S/G151N/Q175L/Q192D (enzyme)
chain: B1 chain with E23Y, V47T, K50R, G93T
